Laboratory results taken from paper PMC12416549 (2024).

T1: TNFR1 (Homo sapiens, UniProt P19438)
T1 chain: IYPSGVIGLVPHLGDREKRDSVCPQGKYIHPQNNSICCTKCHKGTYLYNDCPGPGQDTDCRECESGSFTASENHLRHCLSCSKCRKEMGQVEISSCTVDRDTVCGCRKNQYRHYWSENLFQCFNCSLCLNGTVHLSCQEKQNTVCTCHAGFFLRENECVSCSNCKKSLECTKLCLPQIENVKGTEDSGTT

B1: A80F (designed binder)
chain: MTLQELLREEALRRAEAEAFRYALELLAEKFPEQKEYLLDLAEEIESQIRSLSGVDVEDVRKFLDKEWAWVKELLAEHPFELAEVEAARAARLAELRAEVEAKVAA
B2: L26D (designed binder)
chain: MTLQELLREEALRRAEAEAFRYALEDLAEKFPEQKEYLLDLAEEIESQIRSLSGVDVEDVRKFLDKEWAWVKELLAEHPAELAEVEAARAARLAELRAEVEAKVAA
B3: L26K (designed binder)
chain: MTLQELLREEALRRAEAEAFRYALEKLAEKFPEQKEYLLDLAEEIESQIRSLSGVDVEDVRKFLDKEWAWVKELLAEHPAELAEVEAARAARLAELRAEVEAKVAA
B4: Q48G (designed binder)
chain: MTLQELLREEALRRAEAEAFRYALELLAEKFPEQKEYLLDLAEEIESGIRSLSGVDVEDVRKFLDKEWAWVKELLAEHPAELAEVEAARAARLAELRAEVEAKVAA
B5: V55P (designed binder)
chain: MTLQELLREEALRRAEAEAFRYALELLAEKFPEQKEYLLDLAEEIESQIRSLSGPDVEDVRKFLDKEWAWVKELLAEHPAELAEVEAARAARLAELRAEVEAKVAA
B6: D65M (designed binder)
chain: MTLQELLREEALRRAEAEAFRYALELLAEKFPEQKEYLLDLAEEIESQIRSLSGVDVEDVRKFLMKEWAWVKELLAEHPAELAEVEAARAARLAELRAEVEAKVAA
B7: K35G (designed binder)
chain: MTLQELLREEALRRAEAEAFRYALELLAEKFPEQGEYLLDLAEEIESQIRSLSGVDVEDVRKFLDKEWAWVKELLAEHPAELAEVEAARAARLAELRAEVEAKVAA
B8: E46H (designed binder)
chain: MTLQELLREEALRRAEAEAFRYALELLAEKFPEQKEYLLDLAEEIHSQIRSLSGVDVEDVRKFLDKEWAWVKELLAEHPAELAEVEAARAARLAELRAEVEAKVAA
B9: Q34V (designed binder)
chain: MTLQELLREEALRRAEAEAFRYALELLAEKFPEVKEYLLDLAEEIESQIRSLSGVDVEDVRKFLDKEWAWVKELLAEHPAELAEVEAARAARLAELRAEVEAKVAA
B10: L39Y (designed binder)
chain: MTLQELLREEALRRAEAEAFRYALELLAEKFPEQKEYLYDLAEEIESQIRSLSGVDVEDVRKFLDKEWAWVKELLAEHPAELAEVEAARAARLAELRAEVEAKVAA
B11: S51G (designed binder)
chain: MTLQELLREEALRRAEAEAFRYALELLAEKFPEQKEYLLDLAEEIESQIRGLSGVDVEDVRKFLDKEWAWVKELLAEHPAELAEVEAARAARLAELRAEVEAKVAA
B12: L75I (designed binder)
chain: MTLQELLREEALRRAEAEAFRYALELLAEKFPEQKEYLLDLAEEIESQIRSLSGVDVEDVRKFLDKEWAWVKELIAEHPAELAEVEAARAARLAELRAEVEAKVAA
B13: E29Q (designed binder)
chain: MTLQELLREEALRRAEAEAFRYALELLAQKFPEQKEYLLDLAEEIESQIRSLSGVDVEDVRKFLDKEWAWVKELLAEHPAELAEVEAARAARLAELRAEVEAKVAA
B14: A83G (designed binder)
chain: MTLQELLREEALRRAEAEAFRYALELLAEKFPEQKEYLLDLAEEIESQIRSLSGVDVEDVRKFLDKEWAWVKELLAEHPAELGEVEAARAARLAELRAEVEAKVAA
B15: L6K (designed binder)
chain: MTLQEKLREEALRRAEAEAFRYALELLAEKFPEQKEYLLDLAEEIESQIRSLSGVDVEDVRKFLDKEWAWVKELLAEHPAELAEVEAARAARLAELRAEVEAKVAA
B16: Y22G (designed binder)
chain: MTLQELLREEALRRAEAEAFRGALELLAEKFPEQKEYLLDLAEEIESQIRSLSGVDVEDVRKFLDKEWAWVKELLAEHPAELAEVEAARAARLAELRAEVEAKVAA
B17: S47L (designed binder)
chain: MTLQELLREEALRRAEAEAFRYALELLAEKFPEQKEYLLDLAEEIELQIRSLSGVDVEDVRKFLDKEWAWVKELLAEHPAELAEVEAARAARLAELRAEVEAKVAA
B18: E99S (designed binder)
chain: MTLQELLREEALRRAEAEAFRYALELLAEKFPEQKEYLLDLAEEIESQIRSLSGVDVEDVRKFLDKEWAWVKELLAEHPAELAEVEAARAARLAELRASVEAKVAA
B19: D59V (designed binder)
chain: MTLQELLREEALRRAEAEAFRYALELLAEKFPEQKEYLLDLAEEIESQIRSLSGVDVEVVRKFLDKEWAWVKELLAEHPAELAEVEAARAARLAELRAEVEAKVAA
B20: E99V (designed binder)
chain: MTLQELLREEALRRAEAEAFRYALELLAEKFPEQKEYLLDLAEEIESQIRSLSGVDVEDVRKFLDKEWAWVKELLAEHPAELAEVEAARAARLAELRAVVEAKVAA
B21: L7Y (designed binder)
chain: MTLQELYREEALRRAEAEAFRYALELLAEKFPEQKEYLLDLAEEIESQIRSLSGVDVEDVRKFLDKEWAWVKELLAEHPAELAEVEAARAARLAELRAEVEAKVAA
B22: E95T (designed binder)
chain: MTLQELLREEALRRAEAEAFRYALELLAEKFPEQKEYLLDLAEEIESQIRSLSGVDVEDVRKFLDKEWAWVKELLAEHPAELAEVEAARAARLATLRAEVEAKVAA
B23: E101G (designed binder)
chain: MTLQELLREEALRRAEAEAFRYALELLAEKFPEQKEYLLDLAEEIESQIRSLSGVDVEDVRKFLDKEWAWVKELLAEHPAELAEVEAARAARLAELRAEVGAKVAA
B24: V57K (designed binder)
chain: MTLQELLREEALRRAEAEAFRYALELLAEKFPEQKEYLLDLAEEIESQIRSLSGVDKEDVRKFLDKEWAWVKELLAEHPAELAEVEAARAARLAELRAEVEAKVAA
B25: E73T (designed binder)
chain: MTLQELLREEALRRAEAEAFRYALELLAEKFPEQKEYLLDLAEEIESQIRSLSGVDVEDVRKFLDKEWAWVKTLLAEHPAELAEVEAARAARLAELRAEVEAKVAA
B26: R97H (designed binder)
chain: MTLQELLREEALRRAEAEAFRYALELLAEKFPEQKEYLLDLAEEIESQIRSLSGVDVEDVRKFLDKEWAWVKELLAEHPAELAEVEAARAARLAELHAEVEAKVAA
B27: R14P (designed binder)
chain: MTLQELLREEALRPAEAEAFRYALELLAEKFPEQKEYLLDLAEEIESQIRSLSGVDVEDVRKFLDKEWAWVKELLAEHPAELAEVEAARAARLAELRAEVEAKVAA
B28: M1P (designed binder)
chain: PTLQELLREEALRRAEAEAFRYALELLAEKFPEQKEYLLDLAEEIESQIRSLSGVDVEDVRKFLDKEWAWVKELLAEHPAELAEVEAARAARLAELRAEVEAKVAA
B29: A17M (designed binder)
chain: MTLQELLREEALRRAEMEAFRYALELLAEKFPEQKEYLLDLAEEIESQIRSLSGVDVEDVRKFLDKEWAWVKELLAEHPAELAEVEAARAARLAELRAEVEAKVAA
B30: E10M (designed binder)
chain: MTLQELLREMALRRAEAEAFRYALELLAEKFPEQKEYLLDLAEEIESQIRSLSGVDVEDVRKFLDKEWAWVKELLAEHPAELAEVEAARAARLAELRAEVEAKVAA
B31: L39P (designed binder)
chain: MTLQELLREEALRRAEAEAFRYALELLAEKFPEQKEYLPDLAEEIESQIRSLSGVDVEDVRKFLDKEWAWVKELLAEHPAELAEVEAARAARLAELRAEVEAKVAA
B32: V104D (designed binder)
chain: MTLQELLREEALRRAEAEAFRYALELLAEKFPEQKEYLLDLAEEIESQIRSLSGVDVEDVRKFLDKEWAWVKELLAEHPAELAEVEAARAARLAELRAEVEAKDAA
B33: L64D (designed binder)
chain: MTLQELLREEALRRAEAEAFRYALELLAEKFPEQKEYLLDLAEEIESQIRSLSGVDVEDVRKFDDKEWAWVKELLAEHPAELAEVEAARAARLAELRAEVEAKVAA
B34: E86G (designed binder)
chain: MTLQELLREEALRRAEAEAFRYALELLAEKFPEQKEYLLDLAEEIESQIRSLSGVDVEDVRKFLDKEWAWVKELLAEHPAELAEVGAARAARLAELRAEVEAKVAA
B35: R61K (designed binder)
chain: MTLQELLREEALRRAEAEAFRYALELLAEKFPEQKEYLLDLAEEIESQIRSLSGVDVEDVKKFLDKEWAWVKELLAEHPAELAEVEAARAARLAELRAEVEAKVAA

Biological target: T1, TNFR1
Assay: yeast display SC50

| Binder | apparent Kd (screen) [nM] |
| --- | --- |
| B1 | 0.539 |
| B2 | 0.956 |
| B3 | 0.718 |
| B4 | 0.718 |
| B5 | 0.653 |
| B6 | 0.718 |
| B7 | 0.49 |
| B8 | 0.539 |
| B9 | 0.405 |
| B10 | 1.69 |
| B11 | 1.69 |
| B12 | 0.79 |
| B13 | 0.539 |
| B14 | 0.539 |
| B15 | 7.07 |
| B16 | 0.653 |
| B17 | 0.653 |
| B18 | 0.956 |

| Binder | apparent Kd (screen) [nM] |
| --- | --- |
| B19 | 0.653 |
| B20 | 0.446 |
| B21 | 12.5 |
| B22 | 0.539 |
| B23 | 0.49 |
| B24 | 1.16 |
| B25 | 0.718 |
| B26 | 0.593 |
| B27 | 0.49 |
| B28 | 0.446 |
| B29 | 0.446 |
| B30 | 2.48 |
| B31 | 5.84 |
| B32 | 0.718 |
| B33 | 26.9 |
| B34 | 0.539 |
| B35 | 0.446 |
